# Reference: patent publication US20200199533A1 (KING ABDULLAH UNIVERSITY OF SCIENCE AND TECHNOLOGY, published 2020)
# B1: recombinant E-selectin human immunoglobulin chimeric protein (Fc fusion)
# chain: WSYNTSTEAMTYDEASAYCQQRYTHLVAIQNKEEIEYLNSILSYSPSYYWIGIRKVNNVWVWVGTQKPLTEEAKNWAPGEPNNRQKDEDCVEIYIKREKDVGMWNDERCSKKKLALCYTAACTNTSCSGHGECVETINNYTCKCDPGFSGLKCEQIVNCTALESPEHGSLVCSHPLGNFSYNSSCSISCDRGYLPSSMETMQCMSSGEWSAPIPACNVVECDAVTNPANGFVECFQNPGSFPWNTTCTFDCEEGFELMGAQSLQCTSSGNWDNEKPTCKAVTCRAVRQPQNGSVRCSHSPAGEFTFKSSCNFTCEEGFMLQGPAQVECTTQGQWTQQIPVCEAFQCTALSNPERGYMNCLPSASGSFRYGSSCEFSCEQGFVLKGSKRLQCGPTGEWDNEKPTCEAVRCDAVHQPPKGLVRCAHSPIGEFTYKSSCAFSCEEGFELHGSTQLECTSQGQWTEEVPSCQVVKCSSLAVPGKINMSCSGEPVFGTVCKFACPEGWTLNGSAARTCGATGHWSGLLPTCEAPTESNIP
# What was measured:
# [1] = target: T1, PSGL-1, native glycoprotein from human HSPCs (KG1a, CD34^pos-BM) (human, UniProt Q14242 42-412, native glycosylation and tyrosine sulfation); test: SPR; PSGL-1 captured from KG1a lysate on KPL-1-mAb, E-Ig injected, 150 mM NaCl; apparent rate constant; 3rd experiment
# T1 construct: mature; also called P-selectin glycoprotein ligand-1
# T1 sequence (looked up): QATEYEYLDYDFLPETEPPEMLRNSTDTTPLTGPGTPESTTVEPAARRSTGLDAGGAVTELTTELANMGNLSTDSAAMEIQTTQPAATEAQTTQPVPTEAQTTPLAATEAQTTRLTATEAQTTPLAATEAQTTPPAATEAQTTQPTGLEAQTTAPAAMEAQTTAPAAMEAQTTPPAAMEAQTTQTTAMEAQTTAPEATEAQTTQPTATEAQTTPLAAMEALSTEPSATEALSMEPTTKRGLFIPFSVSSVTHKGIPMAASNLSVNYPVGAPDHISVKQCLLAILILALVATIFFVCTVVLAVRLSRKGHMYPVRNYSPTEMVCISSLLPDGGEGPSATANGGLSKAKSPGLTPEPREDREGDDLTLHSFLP
# [2] = target: T2, CD34, native glycoprotein from human HSPCs (KG1a, CD34^pos-BM, CD34^pos-UCB, CD34^pos-AML) (human, UniProt P28906 32-385, native glycosylation (about 120-130 kDa form); sialylated O-glycans and tyrosine sulfation are shown to matter for selectin binding); test: SPR; CD34 captured from KG1a lysate on 563-mAb, E-Ig injected, 150 mM NaCl; apparent rate constant; 3rd experiment
# T2 construct: mature; also called E-selL CD34
# T2 sequence (looked up): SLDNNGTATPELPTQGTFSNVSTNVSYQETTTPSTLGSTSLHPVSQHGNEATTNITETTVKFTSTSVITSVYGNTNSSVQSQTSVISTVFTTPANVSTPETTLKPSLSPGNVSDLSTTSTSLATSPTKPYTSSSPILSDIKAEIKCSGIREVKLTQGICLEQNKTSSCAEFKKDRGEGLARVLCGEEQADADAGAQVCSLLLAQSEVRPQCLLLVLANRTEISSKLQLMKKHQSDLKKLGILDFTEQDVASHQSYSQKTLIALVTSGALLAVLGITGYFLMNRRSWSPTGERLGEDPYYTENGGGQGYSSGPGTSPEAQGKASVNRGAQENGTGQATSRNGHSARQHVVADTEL
# [3] = target: T2, CD34, native glycoprotein from human …; test: SPR; CD34 captured from KG1a lysate on 563-mAb, E-Ig injected (3.9-2000 nM), 150 mM NaCl; steady-state model; 2nd experiment
# [4] = target: CD44 (HCELL), native glycoprotein from human HSPCs (KG1a, CD34^pos fraction) (human) (UniProt P16070); test: SPR; CD44 captured from KG1a lysate on Hermes-3-mAb, E-Ig injected, 150 mM NaCl; apparent rate constant; 1st experiment
# Sequence of CD44 (HCELL), native glycoprotein from human HSPCs (KG1a, CD34^pos fraction) (human) (P16070 21-742): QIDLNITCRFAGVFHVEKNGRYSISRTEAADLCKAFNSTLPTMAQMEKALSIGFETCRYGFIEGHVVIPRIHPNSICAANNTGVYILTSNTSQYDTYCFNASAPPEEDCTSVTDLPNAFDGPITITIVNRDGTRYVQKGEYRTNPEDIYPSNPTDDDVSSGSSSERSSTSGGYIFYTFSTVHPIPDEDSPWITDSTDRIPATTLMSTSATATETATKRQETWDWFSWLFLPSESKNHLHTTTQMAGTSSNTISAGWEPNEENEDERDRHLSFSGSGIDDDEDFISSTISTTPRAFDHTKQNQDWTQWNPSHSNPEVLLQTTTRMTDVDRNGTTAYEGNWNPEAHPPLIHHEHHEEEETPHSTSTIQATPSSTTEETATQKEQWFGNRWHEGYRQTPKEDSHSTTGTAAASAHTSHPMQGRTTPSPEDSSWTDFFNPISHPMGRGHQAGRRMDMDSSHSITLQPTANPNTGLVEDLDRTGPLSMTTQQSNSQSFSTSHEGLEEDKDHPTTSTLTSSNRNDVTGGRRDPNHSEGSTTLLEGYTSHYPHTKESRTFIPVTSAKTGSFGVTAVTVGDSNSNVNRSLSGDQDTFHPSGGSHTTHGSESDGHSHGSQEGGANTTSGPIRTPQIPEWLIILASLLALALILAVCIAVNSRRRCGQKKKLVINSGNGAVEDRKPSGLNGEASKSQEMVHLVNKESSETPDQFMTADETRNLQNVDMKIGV
# [5] = target: CD44 (HCELL), native glycoprotein from human HSPCs (KG1a, CD34^pos fraction) (human) (UniProt P16070); test: SPR; CD44 captured from KG1a lysate on Hermes-3-mAb, E-Ig injected (3.9-2000 nM), 150 mM NaCl; steady-state model; mean ± SEM
# [6] = target: T2, CD34, native glycoprotein from human …; test: SPR; CD34 captured from KG1a lysate on 563-mAb, E-Ig injected (3.9-2000 nM), 150 mM NaCl; steady-state model; 3rd experiment
# [7] = target: T3, CD43, native glycoprotein from KG1a cells (human, UniProt P16150 20-400, native glycosylation); test: SPR; CD43 captured from KG1a lysate on polyclonal CD43 Ab, E-Ig injected (3.9-2000 nM), 150 mM NaCl; steady-state model; 1st experiment
# T3 construct: mature
# T3 sequence (looked up): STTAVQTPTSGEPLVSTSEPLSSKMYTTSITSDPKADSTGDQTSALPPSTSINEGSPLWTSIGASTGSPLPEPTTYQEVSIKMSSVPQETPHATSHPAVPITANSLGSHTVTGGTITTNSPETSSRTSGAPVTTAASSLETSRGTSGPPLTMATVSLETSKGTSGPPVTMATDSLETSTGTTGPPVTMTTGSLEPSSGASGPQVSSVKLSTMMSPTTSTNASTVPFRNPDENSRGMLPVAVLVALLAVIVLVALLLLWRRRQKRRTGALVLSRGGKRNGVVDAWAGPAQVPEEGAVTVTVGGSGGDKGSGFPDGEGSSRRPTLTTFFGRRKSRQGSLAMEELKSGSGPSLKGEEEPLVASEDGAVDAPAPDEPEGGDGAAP
# [8] = target: T2, CD34, native glycoprotein from human …; test: SPR; CD34 captured from CD34^pos-BM lysate on 563 mAb; apparent rate constant, estimate
# [9] = target: T3, CD43, native glycoprotein from KG1a …; test: SPR; CD43 captured from KG1a lysate on polyclonal CD43 Ab, E-Ig injected (3.9-2000 nM), 150 mM NaCl; steady-state model; 2nd experiment
# [10] = target: T1, PSGL-1, native glycoprotein from human …; test: SPR; PSGL-1 captured from KG1a lysate on KPL-1-mAb, E-Ig injected (3.9-2000 nM), 150 mM NaCl; steady-state model; mean ± SEM
# [11] = target: T1, PSGL-1, native glycoprotein from human …; test: SPR; PSGL-1 captured from KG1a lysate on KPL-1-mAb, E-Ig injected (3.9-2000 nM), 150 mM NaCl; steady-state model; 1st experiment
binder,measurement,setting,value
B1,koff,[1],0.000262 s⁻¹
same,kon,[1],1140 M⁻¹ s⁻¹
same,koff,[2],0.000331 s⁻¹
same,Kd,[3],0.268 µM
same,koff,[4],0.00011 s⁻¹
same,kon,[4],641 M⁻¹ s⁻¹
same,Kd,[5],0.233 µM
same,Kd,[6],0.297 µM
same,Kd,[7],0.509 µM
same,kon,[8],~728 M⁻¹ s⁻¹
same,Kd,[9],0.376 µM
same,Kd,[10],0.259 µM
same,Kd,[11],0.343 µM
